Values quoted from earlier work as cited in publication PMC3721222.
Read-outs that look alike come from different tables or passages of the source.

Key:
Trypsin (Bos taurus) [1] = target: Trypsin (Bos taurus) (UniProt P00760)
[2] = target: Neutrophil elastase (Homo sapiens) (UniProt P08246)
Trypsin (Bos taurus) [3] = target: Trypsin (Bos taurus) (UniProt P00760); remark: listed apart in the source
Plasmin (Homo sapiens) [4] = target: Plasmin (Homo sapiens) (UniProt P00747)
[5] = target: Chymotrypsin (Bos taurus) (UniProt P00766)
Metalloprotease 2 = Metalloprotease 2 (UniProt P08253)
Cathepsin B = Cathepsin B (UniProt P07858)
Cathepsin L = Cathepsin L (UniProt P07711)
Papain (Carica papaya) [6] = target: Papain (Carica papaya) (UniProt P00784)
Trypsin (Bos taurus) [7] = target: Trypsin (Bos taurus) (UniProt P00760); remark: listed apart in the source
[8] = target: Chymotrypsin (Bos taurus) (UniProt P00766); remark: listed apart in the source
Trypsin (Bos taurus) [9] = target: Trypsin (Bos taurus) (UniProt P00760); remark: listed apart in the source
Trypsin (Bos taurus) [10] = target: Trypsin (Bos taurus) (UniProt P00760); remark: listed apart in the source
Trypsin (Bos taurus) [11] = target: Trypsin (Bos taurus) (UniProt P00760); remark: listed apart in the source
[12] = target: Chymotrypsin (Bos taurus) (UniProt P00766); remark: listed apart in the source
Trypsin (Bos taurus) [13] = target: Trypsin (Bos taurus) (UniProt P00760); remark: listed apart in the source
[14] = target: Chymotrypsin (Bos taurus) (UniProt P00766); remark: listed apart in the source
Trypsin (Bos taurus) [15] = target: Trypsin (Bos taurus) (UniProt P00760); remark: listed apart in the source
Trypsin (Bos taurus) [16] = target: Trypsin (Bos taurus) (UniProt P00760); remark: listed apart in the source
[17] = target: Chymotrypsin (Bos taurus) (UniProt P00766); remark: listed apart in the source
Trypsin (Bos taurus) [18] = target: Trypsin (Bos taurus) (UniProt P00760); remark: listed apart in the source
Cathepsin D = Cathepsin D (UniProt P07339)
Trypsin (Bos taurus) [19] = target: Trypsin (Bos taurus) (UniProt P00760); remark: listed apart in the source
[20] = target: Chymotrypsin (Bos taurus) (UniProt P00766); remark: listed apart in the source
Trypsin (Bos taurus) [21] = target: Trypsin (Bos taurus) (UniProt P00760); remark: listed apart in the source
[22] = target: Chymotrypsin (Bos taurus) (UniProt P00766); remark: listed apart in the source
Trypsin (Bos taurus) [23] = target: Trypsin (Bos taurus) (UniProt P00760); remark: listed apart in the source
[24] = target: Chymotrypsin (Bos taurus) (UniProt P00766); remark: listed apart in the source
[25] = target: Pancreatic elastase (Sus scrofa) (UniProt P00772)
Trypsin (Bos taurus) [26] = target: Trypsin (Bos taurus) (UniProt P00760); remark: listed apart in the source
Trypsin (Bos taurus) [27] = target: Trypsin (Bos taurus) (UniProt P00760); remark: listed apart in the source
[28] = target: Leukocyte elastase (Homo sapiens) (UniProt P08246)
[29] = target: Chymotrypsin (Bos taurus) (UniProt P00766); remark: listed apart in the source
Plasmin (Homo sapiens) [30] = target: Plasmin (Homo sapiens) (UniProt P00747); remark: listed apart in the source
Trypsin (Bos taurus) [31] = target: Trypsin (Bos taurus) (UniProt P00760); remark: listed apart in the source
Trypsin (Bos taurus) [32] = target: Trypsin (Bos taurus) (UniProt P00760); remark: listed apart in the source
Plasmin (Homo sapiens) [33] = target: Plasmin (Homo sapiens) (UniProt P00747); remark: listed apart in the source
[34] = target: Chymotrypsin (Bos taurus) (UniProt P00766); remark: listed apart in the source
Kv1.2 = Kv1.2 (UniProt P16389)
Kv1.6 = Kv1.6 (UniProt P17658)
Kv1.1 = Kv1.1 (UniProt Q09470)
Trypsin (Bos taurus) [35] = target: Trypsin (Bos taurus) (UniProt P00760); remark: listed apart in the source
Trypsin (Bos taurus) [36] = target: Trypsin (Bos taurus) (UniProt P00760); remark: listed apart in the source
Plasmin (Homo sapiens) [37] = target: Plasmin (Homo sapiens) (UniProt P00747); remark: listed apart in the source
Plasmin (Homo sapiens) [38] = target: Plasmin (Homo sapiens) (UniProt P00747); remark: listed apart in the source
Trypsin (Bos taurus) [39] = target: Trypsin (Bos taurus) (UniProt P00760); remark: listed apart in the source
Trypsin (Bos taurus) [40] = target: Trypsin (Bos taurus) (UniProt P00760); remark: listed apart in the source
Trypsin (Bos taurus) [41] = target: Trypsin (Bos taurus) (UniProt P00760); remark: listed apart in the source
[42] = target: Chymotrypsin (Bos taurus) (UniProt P00766); remark: listed apart in the source
Trypsin (Bos taurus) [43] = target: Trypsin (Bos taurus) (UniProt P00760); remark: listed apart in the source
Papain (Carica papaya) [44] = target: Papain (Carica papaya) (UniProt P00784); remark: listed apart in the source

UniProt P00747, sequence (P00747 581-810): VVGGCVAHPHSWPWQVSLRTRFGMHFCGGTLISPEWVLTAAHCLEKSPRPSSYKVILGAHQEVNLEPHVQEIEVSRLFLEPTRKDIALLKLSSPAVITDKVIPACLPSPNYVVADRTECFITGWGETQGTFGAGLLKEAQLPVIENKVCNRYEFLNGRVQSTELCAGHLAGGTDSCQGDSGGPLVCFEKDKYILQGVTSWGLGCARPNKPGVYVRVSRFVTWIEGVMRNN
UniProt P00760, sequence (P00760 149-246): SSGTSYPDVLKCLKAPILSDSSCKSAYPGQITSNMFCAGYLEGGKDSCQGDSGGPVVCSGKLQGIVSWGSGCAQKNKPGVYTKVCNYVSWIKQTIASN
UniProt P00784, sequence (P00784 134-345): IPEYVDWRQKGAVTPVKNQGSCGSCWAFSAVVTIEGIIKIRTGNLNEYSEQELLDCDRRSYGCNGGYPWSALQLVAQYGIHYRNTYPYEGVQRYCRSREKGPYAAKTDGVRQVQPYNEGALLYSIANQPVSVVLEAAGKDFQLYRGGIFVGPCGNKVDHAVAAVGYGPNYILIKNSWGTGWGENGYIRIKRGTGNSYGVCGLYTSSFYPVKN
UniProt P17658, sequence (P17658 whole entry): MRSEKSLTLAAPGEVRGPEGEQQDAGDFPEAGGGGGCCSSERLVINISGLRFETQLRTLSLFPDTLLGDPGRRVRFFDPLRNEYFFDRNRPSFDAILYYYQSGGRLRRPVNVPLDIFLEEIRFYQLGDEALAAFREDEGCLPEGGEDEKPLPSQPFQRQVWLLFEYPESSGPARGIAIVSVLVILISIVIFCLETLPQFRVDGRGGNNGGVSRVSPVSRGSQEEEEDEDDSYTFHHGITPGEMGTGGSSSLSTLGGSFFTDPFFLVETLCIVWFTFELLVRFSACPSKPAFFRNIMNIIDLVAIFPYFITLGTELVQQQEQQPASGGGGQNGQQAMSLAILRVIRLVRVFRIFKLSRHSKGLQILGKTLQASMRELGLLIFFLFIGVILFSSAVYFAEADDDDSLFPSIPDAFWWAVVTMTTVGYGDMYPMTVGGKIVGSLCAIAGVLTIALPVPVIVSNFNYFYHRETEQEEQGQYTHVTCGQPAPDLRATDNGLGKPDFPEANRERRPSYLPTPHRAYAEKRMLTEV
UniProt P08253, sequence (P08253 110-660): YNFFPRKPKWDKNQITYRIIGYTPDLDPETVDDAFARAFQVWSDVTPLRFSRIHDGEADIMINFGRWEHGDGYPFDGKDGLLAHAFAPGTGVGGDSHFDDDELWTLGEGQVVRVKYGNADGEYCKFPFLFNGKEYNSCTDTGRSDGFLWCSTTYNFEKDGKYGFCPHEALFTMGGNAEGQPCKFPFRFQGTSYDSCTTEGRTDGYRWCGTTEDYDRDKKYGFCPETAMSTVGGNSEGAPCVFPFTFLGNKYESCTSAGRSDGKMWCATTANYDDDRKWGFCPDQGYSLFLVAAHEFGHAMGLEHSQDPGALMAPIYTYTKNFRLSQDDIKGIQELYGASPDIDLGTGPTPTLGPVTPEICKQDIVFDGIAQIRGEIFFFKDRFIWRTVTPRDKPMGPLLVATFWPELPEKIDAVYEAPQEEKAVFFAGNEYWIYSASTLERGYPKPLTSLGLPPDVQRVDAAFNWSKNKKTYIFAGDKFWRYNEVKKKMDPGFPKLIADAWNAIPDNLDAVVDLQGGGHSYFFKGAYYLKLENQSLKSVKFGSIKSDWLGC
UniProt Q09470, sequence (Q09470 whole entry): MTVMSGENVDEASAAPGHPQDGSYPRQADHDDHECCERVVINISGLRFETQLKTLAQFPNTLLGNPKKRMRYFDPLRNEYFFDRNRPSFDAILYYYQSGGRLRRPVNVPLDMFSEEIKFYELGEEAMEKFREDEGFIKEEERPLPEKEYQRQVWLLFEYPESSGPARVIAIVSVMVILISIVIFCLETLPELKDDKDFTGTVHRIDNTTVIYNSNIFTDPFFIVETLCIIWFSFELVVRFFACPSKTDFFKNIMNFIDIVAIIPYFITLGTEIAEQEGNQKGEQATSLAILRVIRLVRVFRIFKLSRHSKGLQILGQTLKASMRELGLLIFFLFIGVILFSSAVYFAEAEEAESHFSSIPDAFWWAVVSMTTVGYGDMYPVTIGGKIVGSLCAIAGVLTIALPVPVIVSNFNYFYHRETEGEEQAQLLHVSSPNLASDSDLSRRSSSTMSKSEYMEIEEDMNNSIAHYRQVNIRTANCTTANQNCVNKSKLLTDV
UniProt P16389, sequence (P16389 whole entry): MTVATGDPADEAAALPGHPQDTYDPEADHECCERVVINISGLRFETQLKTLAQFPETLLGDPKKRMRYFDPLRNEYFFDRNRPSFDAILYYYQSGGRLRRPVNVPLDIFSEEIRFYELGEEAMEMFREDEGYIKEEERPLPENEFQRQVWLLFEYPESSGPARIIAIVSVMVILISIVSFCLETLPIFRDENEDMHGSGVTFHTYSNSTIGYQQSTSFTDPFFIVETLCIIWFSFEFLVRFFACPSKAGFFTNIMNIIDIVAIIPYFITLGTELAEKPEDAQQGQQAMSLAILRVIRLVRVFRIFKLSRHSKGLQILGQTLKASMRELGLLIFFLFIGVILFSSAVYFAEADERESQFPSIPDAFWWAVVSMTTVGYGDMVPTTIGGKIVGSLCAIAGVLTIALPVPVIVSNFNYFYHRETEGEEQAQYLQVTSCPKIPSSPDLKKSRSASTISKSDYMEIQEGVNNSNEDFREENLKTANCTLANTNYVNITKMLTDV
UniProt P07339, sequence (P07339 65-412): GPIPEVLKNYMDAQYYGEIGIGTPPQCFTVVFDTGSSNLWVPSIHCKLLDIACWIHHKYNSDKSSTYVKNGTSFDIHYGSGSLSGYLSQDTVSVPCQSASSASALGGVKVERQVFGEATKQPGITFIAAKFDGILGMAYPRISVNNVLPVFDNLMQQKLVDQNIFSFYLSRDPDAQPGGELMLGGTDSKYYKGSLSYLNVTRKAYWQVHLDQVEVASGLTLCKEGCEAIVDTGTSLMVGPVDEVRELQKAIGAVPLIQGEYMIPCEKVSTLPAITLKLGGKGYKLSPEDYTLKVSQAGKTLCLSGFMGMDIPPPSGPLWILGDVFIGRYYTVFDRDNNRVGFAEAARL
UniProt P00772, sequence (P00772 27-266): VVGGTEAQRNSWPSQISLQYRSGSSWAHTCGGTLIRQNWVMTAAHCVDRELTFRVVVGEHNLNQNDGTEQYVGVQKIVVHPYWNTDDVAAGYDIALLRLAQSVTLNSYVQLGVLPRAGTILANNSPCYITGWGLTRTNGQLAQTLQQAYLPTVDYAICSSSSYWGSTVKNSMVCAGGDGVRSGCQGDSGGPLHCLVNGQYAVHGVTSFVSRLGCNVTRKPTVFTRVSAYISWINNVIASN
UniProt P07711, sequence (P07711 114-288, chain 1 of 2): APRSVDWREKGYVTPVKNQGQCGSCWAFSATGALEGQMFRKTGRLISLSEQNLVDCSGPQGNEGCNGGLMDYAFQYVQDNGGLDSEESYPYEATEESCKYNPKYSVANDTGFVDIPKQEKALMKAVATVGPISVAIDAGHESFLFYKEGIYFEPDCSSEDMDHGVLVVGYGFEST
UniProt P07711, sequence (P07711 292-333, chain 2 of 2): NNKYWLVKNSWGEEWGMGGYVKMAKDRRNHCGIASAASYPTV

Q: Which Kd (Trypsin (Bos taurus) [1]) does the source give for rBmKTT-2 (from UniProt P0DJ50) here?
A: 420 nM

Q: Which Ki [2] does the source give for AvKTI (from UniProt Q8T3S7) here?
A: 169 nM

Q: What about the Ki (Trypsin (Bos taurus) [3]) of the same substance?
A: 7.34 nM

Q: And the Ki (Plasmin (Homo sapiens) [4])?
A: 4.89 nM

Q: And the Ki [5]?
A: 37.8 nM

Q: Which Ki (Metalloprotease 2) does the source give for Pr-mulgin 1 (from UniProt E7FL11) here?
A: 60 nM

Q: Which results are given for Equistatin (from UniProt P81439)?
A: Ki (Cathepsin B): 1.4 nM; Ki (Cathepsin L): 0.051 nM; Ki (Papain (Carica papaya) [6]): 0.57 nM

Q: Which Kd (Trypsin (Bos taurus) [7]) does the source give for rLmKTT-1b (SdPI) (from UniProt P0DJ45) here?
A: 160 nM

Q: Which Ki [8] does the source give for NACI (from UniProt Q5ZPJ7) here?
A: 25 nM

Q: Which Kd (Trypsin (Bos taurus) [9]) does the source give for Jn-IV (from UniProt P16344) here?
A: 9.6 nM

Q: Which Kd (Trypsin (Bos taurus) [10]) does the source give for rLmKTT-1a (from UniProt P0DJ46) here?
A: 140 nM

Q: For OH-TCI (native) (from UniProt B6RLX2), which Ki (Trypsin (Bos taurus) [11]) is on record?
A: 170 nM

Q: And the Ki [12]?
A: 170 nM

Q: Which Kd (Trypsin (Bos taurus) [13]) does the source give for SA5 II (from UniProt P10280) here?
A: 0.3 nM

Q: Which Ki [14] does the source give for Bungaruskunin (from UniProt B2KTG1) here?
A: 6.1 µM

Q: Which Ki (Trypsin (Bos taurus) [15]) does the source give for CBPTI-2 (from UniProt A8Y7N5) here?
A: 666 nM

Q: For Trypsin inhibitor (from UniProt P20229), which Ki (Trypsin (Bos taurus) [16]) is on record?
A: 3.5 pM

Q: For BF9 (from UniProt P25660), which Kd [17] is on record?
A: 58 nM

Q: Which Kd (Trypsin (Bos taurus) [18]) does the source give for “Kalicludin-1 (AsKC1) (from UniProt Q9TWG0)” here?
A: < 30 nM

Q: For “Equistatin second domain (from UniProt P81439)”, which Ki (Cathepsin D) is on record?
A: 0.3 nM

Q: For Dendrotoxin E (from UniProt P00984), which Kd (Trypsin (Bos taurus) [19]) is on record?
A: 1 nM

Q: What about the Kd [20] of the same substance?
A: 100 nM

Q: For APHC1 (from UniProt B2G331), which Kd (Trypsin (Bos taurus) [21]) is on record?
A: 1000 nM

Q: What about the Kd [22] of the same substance?
A: 5 µM

Q: For “Trypsin inhibitor I (from UniProt P00991)”, which Ki (Trypsin (Bos taurus) [23]) is on record?
A: 0.34 nM

Q: And the Ki [24]?
A: 270 nM

Q: For “Elastase inhibitor (from UniProt P16895)”, which Kd [25] is on record?
A: 1 nM

Q: With rLmKTT-1c (from UniProt P0DJ48) as the substance, how does the Kd (Trypsin (Bos taurus) [26]) read?
A: 124 nM

Q: Which Kd (Trypsin (Bos taurus) [27]) does the source give for Albumin-1 (from UniProt Q3T478) here?
A: 1.92 nM

Q: For “Elastase inhibitor AEI (from UniProt P16895)”, which Ki [28] is on record?
A: 1000 nM

Q: For CBPTI-3 (from UniProt A8Y7N6), which Ki [29] is on record?
A: 2.55 nM

Q: For Textilinin-2 (from UniProt Q90WA0), which Ki (Plasmin (Homo sapiens) [30]) is on record?
A: 2.2 nM

Q: For “Kalicludin-3 (AsKC3) (from UniProt Q9TWF8)”, which Kd (Trypsin (Bos taurus) [31]) is on record?
A: < 30 nM

Q: For ShPI-1 (from UniProt P31713), which Kd (Trypsin (Bos taurus) [32]) is on record?
A: 0.11 nM

Q: What about the Kd (Plasmin (Homo sapiens) [33]) of the same substance?
A: 2.7 nM

Q: And the Kd [34]?
A: 2.3 nM

Q: What does the source list for Toxin I (from UniProt P00979)?
A: Kd (Kv1.2): < 20 nM; Kd (Kv1.6): < 20 nM; Kd (Kv1.1): < 20 nM

Q: For rHg1 (from UniProt P0C8W3), which Kd (Trypsin (Bos taurus) [35]) is on record?
A: 107 nM

Q: For PILP-1 (from UniProt B4ESA2), which Ki (Trypsin (Bos taurus) [36]) is on record?
A: 55.6 nM

Q: For Bt-KTI (from UniProt D8KY58), which Ki (Plasmin (Homo sapiens) [37]) is on record?
A: 2.01 nM

Q: Which Ki (Plasmin (Homo sapiens) [38]) does the source give for Bi-KTI (from UniProt G3LH89) here?
A: 3.6 nM

Q: Which Ki (Trypsin (Bos taurus) [39]) does the source give for CBPTI-1 (from UniProt A8Y7N4) here?
A: 407 nM

Q: For “Kalicludin-2 (AsKC2) (from UniProt Q9TWF9)”, which Kd (Trypsin (Bos taurus) [40]) is on record?
A: < 30 nM

Q: Which Ki (Trypsin (Bos taurus) [41]) does the source give for “Chymotrypsin inhibitor (from UniProt P00992)” here?
A: 5.1 µM

Q: And the Ki [42]?
A: 4.3 nM

Q: With rBmKTT-1 (from UniProt P0DJ49) as the substance, how does the Kd (Trypsin (Bos taurus) [43]) read?
A: 136 nM

Q: With “Equistatin N-terminal domain (from UniProt P81439)” as the substance, how does the Ki (Papain (Carica papaya) [44]) read?
A: 0.6 nM
